Measured values published in patent publication US20170355774A1 (Regeneron, published 2017).

T1: human GITR (amino acids M1-V241, NCBI Accession #NP_004186.1) expressed on cells (human, UniProt Q9Y5U5 26-241)
T1 sequence: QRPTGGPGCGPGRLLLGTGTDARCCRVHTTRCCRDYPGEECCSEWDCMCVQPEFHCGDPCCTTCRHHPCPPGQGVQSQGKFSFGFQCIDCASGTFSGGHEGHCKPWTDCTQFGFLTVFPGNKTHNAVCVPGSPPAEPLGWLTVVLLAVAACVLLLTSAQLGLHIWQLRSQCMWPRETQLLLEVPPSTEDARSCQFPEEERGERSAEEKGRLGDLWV

T2: hGITR.mFc (human)
T2 construct: soluble dimeric construct with mouse Fc; also called dimeric human GITR
T2 chain: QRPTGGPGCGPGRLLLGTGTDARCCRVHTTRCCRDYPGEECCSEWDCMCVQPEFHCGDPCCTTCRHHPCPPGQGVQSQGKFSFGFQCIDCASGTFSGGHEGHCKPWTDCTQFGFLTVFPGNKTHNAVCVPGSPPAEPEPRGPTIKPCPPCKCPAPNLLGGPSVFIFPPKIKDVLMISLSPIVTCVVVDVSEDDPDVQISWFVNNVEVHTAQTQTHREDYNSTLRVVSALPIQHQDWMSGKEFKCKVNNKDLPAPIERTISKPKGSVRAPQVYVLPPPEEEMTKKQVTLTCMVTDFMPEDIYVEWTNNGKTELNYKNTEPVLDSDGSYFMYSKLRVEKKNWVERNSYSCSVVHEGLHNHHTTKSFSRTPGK

T3: mfGITR.mmh (Macaca fasicularis)
T3 construct: soluble monomeric construct; also called Macaca fasicularis (mf) GITR.mmh; cynomolgus GITR protein
T3 chain: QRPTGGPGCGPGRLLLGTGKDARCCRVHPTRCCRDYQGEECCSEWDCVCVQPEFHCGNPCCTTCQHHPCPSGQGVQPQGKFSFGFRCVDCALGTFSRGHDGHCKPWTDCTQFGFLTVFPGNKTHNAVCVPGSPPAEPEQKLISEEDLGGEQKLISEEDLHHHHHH

T4: hGITR.mmh (human)
T4 construct: soluble monomeric construct; also called human (h) GITR.mmh; monomeric human GITR
T4 chain: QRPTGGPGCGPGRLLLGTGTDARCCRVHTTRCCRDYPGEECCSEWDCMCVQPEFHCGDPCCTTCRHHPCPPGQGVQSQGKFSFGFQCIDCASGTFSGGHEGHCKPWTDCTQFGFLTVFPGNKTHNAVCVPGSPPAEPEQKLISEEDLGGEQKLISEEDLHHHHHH


Columns and labels:
[1] = target: T1, human GITR (amino acids M1-V241, NCBI …); assay: cell-based or functional assay
[2] = target: T2, hGITR.mFc; assay: SPR 37C, mAb capture
[3] = target: T3, mfGITR.mmh; assay: SPR 37C, mAb capture
[4] = target: T4, hGITR.mmh; assay: SPR 37C, mAb capture
[5] = target: T1, human GITR (amino acids M1-V241, NCBI …); assay: cell-based or functional assay; remark: listed apart in the source
[6] = target: T1, human GITR (amino acids M1-V241, NCBI …); assay: ECL cell binding, hGITR/HEK293-D9
Procedure, shortened: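 Cells blocked with 2% BSA, then antibody dilutions from 1.7 pM to 100 nM added 1 h at RT. Bound antibody detected with SULFO-TAG anti-human kappa antibody, electrochemiluminescence read, RLU fitted by four-parameter logistic; signal at 100 nM on hGITR cells versus parental cells also recorded.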

[7] = target: T1, human GITR (amino acids M1-V241, NCBI …); assay: cell-based or functional assay; remark: listed apart in the source
[8] = target: T1, human GITR (amino acids M1-V241, NCBI …); assay: cell-based or functional assay; remark: listed apart in the source

Row | fold activation, T-cell proliferation, plate-bound Ab 10.6 nM, donor 1 [1] | fold activation, T-cell proliferation, plate-bound Ab 10.6 nM, donor 2 [1] | fold activation, T-cell proliferation, plate-bound Ab 10.6 nM, donor 3 [1] | fold activation, T-cell proliferation, plate-bound Ab 10.6 nM, donor 4 [1] | fold activation, T-cell proliferation, plate-bound Ab 10.6 nM, donor 5 [1] | fold activation, T-cell proliferation, plate-bound Ab 10.6 nM, donor 6 [1] | fold activation, T-cell proliferation, plate-bound Ab 10.6 nM, donor 7 [1] | fold activation, T-cell proliferation, plate-bound Ab 10.6 nM, donor 8 [1] | fold activation, T-cell proliferation, plate-bound Ab 10.6 nM, mean [1] | Kd [2] | koff [2] | kon [2] | t½ [2] | Kd [3] | koff [3] | kon [3] | t½ [3] | Kd [4] | koff [4] | kon [4] | Binder | also measured
1 | 6 fold | 1 fold | 1 fold | 2 fold | 1 fold | 3 fold | 2 fold | 1 fold | 2 fold | 0.427 nM | 0.000338 s⁻¹ | 791000 M⁻¹ s⁻¹ | 34.2 min | 155 nM | 0.0205 s⁻¹ | 133000 M⁻¹ s⁻¹ | 0.6 min | 52.4 nM | 0.0166 s⁻¹ | 317000 M⁻¹ s⁻¹ | H4H14525P (antibody, human IgG4, V domains shown, human IgG4 (H4H)) VH: QVQLVESGGGVVQPGRSLRLSCAASGFTFSSYGMHWVRQAPGKGLEWVAVIWYVGSNKYYGESVKGRFTISRDNSKNTLYLQMNSLRDEDTAIYYCARGGQLGSFYYYGMDVWGQGTTVTVSS VL: DIQMTQSPSSLSASVGDRVTITCRASQGIRNDLGWYQQKPGKAPKRLIYDVSSLQSGVPSRFSGSGSGTEFTLTISSLQPEDLATYYCLQHNSYPWTFGQGTKVEIK | t½ [4]: 0.7 min; fold activation, T-cell proliferation, 33 nM, FcgR anchored, donor 1 [5]: 1.2 fold; fold activation, T-cell proliferation, 33 nM, FcgR anchored, donor 2 [5]: 0.8 fold; fold activation, T-cell proliferation, 33 nM, FcgR anchored, donor 3 [5]: 1 fold; fold activation, T-cell proliferation, 33 nM, FcgR anchored, donor 4 [5]: 1.5 fold; fold activation, T-cell proliferation, 33 nM, FcgR anchored, donor 5 [5]: 1.5 fold; fold activation, T-cell proliferation, 33 nM, FcgR anchored, mean [5]: 1.2 fold; Average Signal (RLU) at 100 nM [6]: 8840 RLU; EC50 [6]: 0.6 nM; fold activation, T-cell proliferation, 22 nM, non-anchored, donor 1 [7]: 0.7 fold; fold activation, T-cell proliferation, 22 nM, non-anchored, donor 2 [7]: 1 fold; fold activation, T-cell proliferation, 22 nM, non-anchored, donor 3 [7]: 0.9 fold; fold activation, T-cell proliferation, 22 nM, non-anchored, donor 4 [7]: 1 fold; fold activation, T-cell proliferation, 22 nM, non-anchored, mean [7]: 0.9 fold; % Activation, NF-kB-Luc, non-anchored [8]: 20%; % Blocking, NF-kB-Luc, non-anchored [8]: 70%; EC50, hGITR activation, NF-kB-Luc, non-anchored [8]: 1.1 nM; IC50, blocking of hGITRL stimulation, NF-kB-Luc, non-anchored [8]: 1.4 nM
2 | 2 fold | 6 fold | 6 fold | 12 fold | 6 fold | 19 fold | 7 fold | 2 fold | 8 fold | 0.373 nM | 0.000269 s⁻¹ | 720000 M⁻¹ s⁻¹ | 42.9 min | 24.9 nM | 0.00648 s⁻¹ | 260000 M⁻¹ s⁻¹ | 1.8 min | 18.5 nM | 0.00645 s⁻¹ | 348000 M⁻¹ s⁻¹ | H4H14532P2 (antibody, human IgG4, V domains shown, human IgG4 (H4H)) VH: QVQLVESGGGVVQPGRSLRLSCSASGFTLSNFVMHWVRQAPGKGLEWVAVILYDGSNKYYADSVKGRFTISRDNSNNRLYLQMNSLRAEDTALYYCARGESLGSPIYYYYGLDVWGQGTTVTVSS VL: not shown | t½ [4]: 1.8 min; fold activation, T-cell proliferation, 33 nM, FcgR anchored, donor 1 [5]: 0.8 fold; fold activation, T-cell proliferation, 33 nM, FcgR anchored, donor 2 [5]: 0.9 fold; fold activation, T-cell proliferation, 33 nM, FcgR anchored, donor 3 [5]: 1 fold; fold activation, T-cell proliferation, 33 nM, FcgR anchored, donor 4 [5]: 1.7 fold; fold activation, T-cell proliferation, 33 nM, FcgR anchored, donor 5 [5]: 2.1 fold; fold activation, T-cell proliferation, 33 nM, FcgR anchored, mean [5]: 1.3 fold; Average Signal (RLU) at 100 nM [6]: 5740 RLU; EC50 [6]: 0.43 nM; fold activation, T-cell proliferation, 22 nM, non-anchored, donor 1 [7]: 0.7 fold; fold activation, T-cell proliferation, 22 nM, non-anchored, donor 2 [7]: 0.8 fold; fold activation, T-cell proliferation, 22 nM, non-anchored, donor 3 [7]: 1 fold; fold activation, T-cell proliferation, 22 nM, non-anchored, donor 4 [7]: 1.1 fold; fold activation, T-cell proliferation, 22 nM, non-anchored, mean [7]: 0.9 fold; % Activation, NF-kB-Luc, non-anchored [8]: 30%; % Blocking, NF-kB-Luc, non-anchored [8]: 90%; EC50, hGITR activation, NF-kB-Luc, non-anchored [8]: 1.2 nM; IC50, blocking of hGITRL stimulation, NF-kB-Luc, non-anchored [8]: 1 nM
3 | 3 fold | 12 fold | 12 fold | 15 fold | 12 fold | 17 fold | 11 fold | 11 fold | 12 fold | 0.335 nM | 0.000401 s⁻¹ | 1.2e+06 M⁻¹ s⁻¹ | 28.8 min | 41.1 nM | 0.00243 s⁻¹ | 59100 M⁻¹ s⁻¹ | 4.7 min | 43 nM | 0.0122 s⁻¹ | 284000 M⁻¹ s⁻¹ | H4H14469P (antibody, human IgG4, V domains shown, human IgG4 (H4H)) VH: QVQLVESGGGVVQPGGSLRLSCAVSGFTFSDYGMHWVRQVPGAGLEWVAVIYYEGSNKYYADSVKGRFTISRDNSKNTLYLQMNSLRVEDTSMYFCARGPLLGGNFYSYLMDVWGQGTTVTVSS VL: AIQMTQSPSSLSASVGDRVTITCRASQGIRNGLGWYQQKPGKAPKLLIYTASSLQSGVPSRFSGSGSGTDFTLTISSLQPEDFATYYCLQDYNYPFSFGPGTKVDIK | t½ [4]: 0.9 min; fold activation, T-cell proliferation, 33 nM, FcgR anchored, donor 1 [5]: 0.7 fold; fold activation, T-cell proliferation, 33 nM, FcgR anchored, donor 2 [5]: 1 fold; fold activation, T-cell proliferation, 33 nM, FcgR anchored, donor 3 [5]: 0.9 fold; fold activation, T-cell proliferation, 33 nM, FcgR anchored, donor 4 [5]: 1.5 fold; fold activation, T-cell proliferation, 33 nM, FcgR anchored, donor 5 [5]: 1.5 fold; fold activation, T-cell proliferation, 33 nM, FcgR anchored, mean [5]: 1.1 fold; Average Signal (RLU) at 100 nM [6]: 5230 RLU; EC50 [6]: 0.23 nM; fold activation, T-cell proliferation, 22 nM, non-anchored, donor 1 [7]: 0.9 fold; fold activation, T-cell proliferation, 22 nM, non-anchored, donor 2 [7]: 0.8 fold; fold activation, T-cell proliferation, 22 nM, non-anchored, donor 3 [7]: 1 fold; fold activation, T-cell proliferation, 22 nM, non-anchored, donor 4 [7]: 0.9 fold; fold activation, T-cell proliferation, 22 nM, non-anchored, mean [7]: 0.9 fold; % Activation, NF-kB-Luc, non-anchored [8]: 50%; % Blocking, NF-kB-Luc, non-anchored [8]: 90%; EC50, hGITR activation, NF-kB-Luc, non-anchored [8]: 2.3 nM; IC50, blocking of hGITRL stimulation, NF-kB-Luc, non-anchored [8]: 0.7 nM
